This is an account of results in US12421510B2, “Peptide, a complex and a method for treating cancer” (TECHNION RESEARCH & DEVELOPMENT FOUNDATION LIMITED, priority 2018, dated 2025).

For assay [1], the target named is T1, p105 (Homo sapiens, UniProt P19838).
T1 sequence (P19838 1-968): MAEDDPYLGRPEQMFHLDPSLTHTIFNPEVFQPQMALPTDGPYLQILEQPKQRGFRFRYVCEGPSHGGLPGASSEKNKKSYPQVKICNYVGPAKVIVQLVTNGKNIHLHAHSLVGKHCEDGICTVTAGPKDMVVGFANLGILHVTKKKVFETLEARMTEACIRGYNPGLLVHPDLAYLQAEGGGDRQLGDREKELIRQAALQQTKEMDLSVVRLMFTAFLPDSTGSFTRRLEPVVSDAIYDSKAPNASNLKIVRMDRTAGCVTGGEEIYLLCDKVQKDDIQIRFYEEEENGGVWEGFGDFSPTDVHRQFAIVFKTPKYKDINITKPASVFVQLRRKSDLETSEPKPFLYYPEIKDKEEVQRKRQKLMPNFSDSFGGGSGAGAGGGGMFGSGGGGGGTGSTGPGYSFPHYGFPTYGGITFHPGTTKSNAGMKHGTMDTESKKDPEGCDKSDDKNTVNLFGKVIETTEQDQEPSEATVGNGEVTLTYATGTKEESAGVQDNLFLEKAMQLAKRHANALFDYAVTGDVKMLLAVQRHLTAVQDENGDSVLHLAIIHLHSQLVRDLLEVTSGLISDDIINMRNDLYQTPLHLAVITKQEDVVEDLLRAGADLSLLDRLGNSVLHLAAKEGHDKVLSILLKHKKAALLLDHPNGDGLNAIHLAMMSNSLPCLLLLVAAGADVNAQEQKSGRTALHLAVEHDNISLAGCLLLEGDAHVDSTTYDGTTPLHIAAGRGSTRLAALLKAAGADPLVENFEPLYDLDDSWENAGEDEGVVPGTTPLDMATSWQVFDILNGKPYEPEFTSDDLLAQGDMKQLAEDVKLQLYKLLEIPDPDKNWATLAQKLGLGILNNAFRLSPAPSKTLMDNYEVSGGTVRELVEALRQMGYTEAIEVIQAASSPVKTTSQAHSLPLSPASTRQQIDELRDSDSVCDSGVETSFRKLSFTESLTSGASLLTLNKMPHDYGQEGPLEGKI
As to the kind of experiment: Ubiquitination of p105 by purified KPC1 species in cell-free conjugation assay. It counts as biochemical. The conditions noted are these: reconstituted cell-free system, in vitro translated 35S-labeled p105, purified Ub, E1, E2, UbAl, ATP. An excerpt:
FIGS. 4A and 4B represent western blots showing in vitro ubiquitination of p105 by mutated species of KPC1: FIG. 4A: In vitro translated and ^35S-labeled p105 was ubiquitinated by purified KPC1-Δ1-967-6xHIS (lanes 2-4) or KPC1-Δ1-974-6xHIS (lanes 5-7) in a reconstituted cell-free system. 4B) In vitro translated and ^355-labeled p105 was ubiquitinated by purified KPC1-Δ1-967-6xHIS (lanes 2,5,6), KPC1-Δ1-974-6xHIS (lane 3), KPC1-Δ967-1043-6xHIS (lane 4), WILVRLW-KPC1-Δ1-1039-6xHIS (lanes 7-8) or WILVRLW-KPC1-Δ1-1061-6xHIS (lanes 9-10) in a reconstituted cell-free system.
In order to assess if the interaction between two proteins leads to the conjugation of the substrate p105, ubiquitination reaction was performed in cell free system. The conjugation reaction was carried out in the presence of purified Ub, E1, E2, UbAl, ATP and KPC1—either wild-type or different mutant species. Samples were resolved via SDS-PAGE and the 35S-labeled p105 and its adducts were visualized using autoradiography. […] In addition, the shorter versions of KPC1 in which the 7 amino acids sequence were brought closer to RING domain, the active site of the enzyme were prepared. Both truncated KPC1 proteins that harbor the 7 amino acid sequence, WILVRLW-KPC1-Δ1-1039 (SEQ ID. No. 6) and WILVRLW-KPC1-Δ1-1061 (SEQ ID. No. 7), modified p105 (FIG. 4B, lanes 7-10).

For assay [2], the system named is glioblastoma U87-MG tumor. As to the kind of experiment: Growth of U87-MG tumor xenografts overexpressing KPC1 species in nude mice. The format is in vivo. The note with it: overexpression in U87-MG cells injected to nude mice; growth rates and weights of xenografts, three weeks after inoculation. An excerpt: FIG. 8A and FIG. 8B depict growth rates and weights of tumor xenografts grown in nude mice, and derived from U87-MG expressing V0 (control), Myc-KPC1 or Flag-WILVRLW-KPC1Δ1-1039 (SEQ ID NO: 6).
Growth rates and weights (FIG. 8B) of tumor xenografts grown in nude mice, and derived from U87-MG expressing VO (control), Myc-KPC1, and Flag-WILVRLW-KPC1Δ1-1039 (SEQ ID. No. 6).

Assay [3] deals with T1, p105. As to the kind of experiment: Co-immunoprecipitation (Co-IP) of KPC1 species with p105-HA from transfected HEK293T cells. The format is binding. The arrangement: HA; expressed in transfected cells; host or cells: HEK293T. The note with it: anti-FLAG immunoprecipitation, anti-NF-κB1 western blot, listed as full-length KPC1. An excerpt: FIG. 1B is a western blot showing the following: HEK293T cells were transfected with cDNAs coding for p105-HA (lanes 1-6), along with the different KPC1 species as following: W.T KPC1 (lane 1), KPC1Δ969-1314 (lane 2), KPC1Δ1-438 & 1039-1314 (lane 3), KPC1Δ1-967 (lane 4) and KPC1Δ1-1042 (lane 5). Lane 6 was transfected with an empty vector. KPC1 species were immunoprecipitated using immobilized FLAG antibodies, resolved by SDS-page, and NF-κB1 and KPC1 proteins were visualized by anti-NF-κB1 (FIG. 1B (upper)) and anti-FLAG (FIG. 1B (bottom)) antibodies, respectively. 10% of the total cell lysate was analyzed for the expression of p105-HA.
FIG. 2B is a western blot. HEK293T cells were transfected with cDNAs coding for p105-HA (lanes 1-7), along with different KPC1 species as following: WT KPC1 (lane 1), KPC1Δ1-967 (lane 2), KPC1Δ967-1043 (lane 3), KPC1Δ1-973 (lane 4), KPC1Δ1-1017 (lane 5) and KPC1ΔCC domain (lane 6). Lane 7 represents cells that were transfected with empty vector. KPC1 species were immunoprecipitated using immobilized FLAG antibodies, resolved by SDS-page. NF-κB1 and KPC1 proteins were visualized with anti-NF-κB1 (FIG. 2B (i)) and anti-FLAG (FIG. 2B (ii)) antibodies, respectively. 10% of the total cell lysate was analyzed for the expression of p105-HA. FIGS. 3A and 3B: FIG. 3A is a schematic representation of KPC1 species used in the experiment shown in FIG. 3B that was directed to evaluating the region of KPC1 that is responsible for the interaction with p105.
FIG. 3B is a western blot. HEK293T cells were transfected with cDNAs coding for p105-HA (lanes 1-12), along with different KPC1 species as following: KPC1-FLAG (lane 1), WILVRLW-KPC1 Δ 1-1253 (SEQ ID NO: 8) (lane 2), ILVRLW-KPC1 Δ 1-1253 (SEQ ID NO: 10) (lane 3), LVRLW-KPC1 Δ 1-1253 (SEQ ID NO: 11) (lane 4), VRLW-KPC1 Δ 1-1253 (lane 5) (SEQ ID NO: 12), RLW-KPC1 Δ 1-1253 (lane 6) SEQ ID NO:13), KPC1 Δ 1-1253 (lane 7), WILVRL-KPC1 Δ 1-1253 (lane 8) (SEQ ID NO: 14), WILVR-KPC1 Δ 1-1253 (SEQ ID NO: 15) (lane 9), WILV-KPC1 Δ 1-1253 (SEQ ID NO: 16) (lane 10), WIL-KPC1 Δ 1-1253 (SEQ ID NO: 17 (lane 11). Lane 12 represents cells that were transfected with empty vector. KPC1 species were immunoprecipitated using immobilized FLAG antibodies, resolved by SDS-page. NF-κB1 and KPC1 proteins were visualized by anti-NF-κB1 (FIG. 3B, (i, ii) and anti-FLAG (FIG. 3B, (iii) antibodies, respectively. 10% of the total cell lysate was analyzed for the expression of p105-HA (FIG. 3B, (ii)).
HEK293T cells were transiently transfected with the various KPC1 species along with p105-HA using the j etPEI reagent. 48 hours after transfection, the cells were harvested and lysed with RIPA buffer [150 mM NaCl, 0.5% sodium deoxycholate, 50 mM Tris-HCl (pH 8.0), 0.1% SDS, and 1% NP-40, supplemented with freshly added protease inhibitors mixture]. KPC1 species proteins were immunoprecipitated with immobilized anti-FLAG, with subsequent washing of the beads five times with RIPA buffer. The immunoprecipitated proteins were resolved by SDS-PAGE (10%, FIGS. 1A, 1B, 2A and 2B, with a gel gradient, of 4-20%; FIGS. 3A and 3B), and blotted onto nitrocellulose (FIGS. 1A, 1B, 2A and 2B) or PVDF (FIGS. 3A and 3B) membranes. p105 and KPC1 species were visualized using anti-NF-κB1 or anti-FLAG antibodies, respectively.
Identification of the region of KPC1 that is responsible for the interaction with p105. In order to identify the region of KPC1 that is responsible for the interaction with p105, several truncated segments of the DNA sequence of the KPC1 protein were cloned. The truncated segments were inserted into the pCAGGS expression vector to analyze their interaction with p105 by co-immunoprecipitation (Co-IP) from cells. HEK 293T cells were transfected with cDNAs coding for p105-HA, along with different fragments of KPC1 (FIG. 1A). Species of KPC1 were immunoprecipitated using an immobilized anti-Flag antibody. […]
In general terms: A western blot detects proteins with antibodies after separation by electrophoresis.

B1: WILVRLW-KPC1-Δ1-1039: truncated KPC1 with the 7 amino acid sequence brought closer to RING domain, SEQ ID NO: 6 (protein)
chain: WILVRLWAFSEFIGMIQEIQQAAERLERNFVDSRQLKVCATCFDLSVSLLRVLEMTITLVPEIFLDWTRPTSEMLLRRLAQLLNQVLNRVTAERNLFDRVVTLRLPGLESVDHYPILVAVTGILVQLLVRGPASEREQATSVLLADPCFQLRSICYLLGQPEPPAPGTALPAPDRKRFSLQSYADYISADELAQVEQMLAHLTSASAQAAAASLPTSEEDLCPICYAHPISAVFQPCGHKSCKACINQHLMNNKDCFFCKTTIVSVEDWEKGANTSTTSSAA
Consider B1, for which, in the assay with p105 [1], the “ubiquitination of p105” value is “modified p105”. The tumor growth entry in assay [2] is “repressed glioblastoma U87-MG tumor growth”.

B2: KPC1: wild-type ubiquitin ligase KPC1 (RNF123), SEQ ID NO: 2 (protein)
chain: MASKGAGMSFSRKSYRLTSDAEKSRVTGIVQEKLLNDYLNRIFSSSEHAPPAATSRKPLNFQNLPEHLDQLLQVDNEEEESQGQVEGRLGPSTVVLDHTGGFEGLLLVDDDLLGVIGHSNFGTIRSTTCVYKGKWLYEVLISSQGLMQIGWCTISCRFNQEEGVGDTHNSYAYDGNRVRKWNVTTTNYGKAWAAGDIVSCLIDLDDGTLSFCLNGVSLGTAFENLSRGLGMAYFPAISLSFKESVAFNFGSRPLRYPVAGYRPLQDPPSADLVRAQRLLGCFRAVLSVELDPVEGRLLDKESSKWRLRGQPTVLLTLAHIFHHFAPLLRKVYLVEAVLMSFLLGIVEKGTPTQAQSVVHQVLDLLWLFMEDYEVQDCLKQLMMSLLRLYRFSPIVPDLGLQIHYLRLTIAILRHEKSRKFLLSNVLFDVLRSVVFFYIKSPLRVEEAGLQELIPTTWWPHCSSREGKESTEMKEETAEERLRRRAYERGCQRLRKRIEVVEELQVQILKLLLDNKDDNGGEASRYIFLTKFRKFLQENASGRGNMPMLCPPEYMVCFLHRLISALRYYWDEYKASNPHASFSEEAYIPPQVFYNGKVDYFDLQRLGGLLSHLRKTLKDDLASKANIVIDPLELQSTAMDDLDEDEEPAPAMAQRPMQALAVGGPLPLPRPGWLSSPTLGRANRFLSTAAVSLMTPRRPLSTSEKVKVRTLSVEQRTREDIEGSHWNEGLLLGRPPEEPEQPLTENSLLEVLDGAVMMYNLSVHQQLGKMVGVSDDVNEYAMALRDTEDKLRRCPKRRKDILAELTKSQKVFSEKLDHLSRRLAWVHATVYSQEKMLDIYWLLRVCLRTIEHGDRTGSLFAFMPEFYLSVAINSYSALKNYFGPVHSMEELPGYEETLTRLAAILAKHFADARIVGTDIRDSLMQALASYVCYPHSLRAVERIPEEQRIAMVRNLLAPYEQRPWAQTNWILVRLWRGCGFGYRYTRLPHLLKTKLEDANLPSLQKPCPSTLLQQHMADLLQQGPDVAPSFLNSVLNQLNWAFSEFIGMIQEIQQAAERLERNFVDSRQLKVCATCFDLSVSLLRVLEMTITLVPEIFLDWTRPTSEMLLRRLAQLLNQVLNRVTAERNLFDRVVTLRLPGLESVDHYPILVAVTGILVQLLVRGPASEREQATSVLLADPCFQLRSICYLLGQPEPPAPGTALPAPDRKRFSLQSYADYISADELAQVEQMLAHLTSASAQAAAASLPTSEEDLCPICYAHPISAVFQPCGHKSCKACINQHLMNNKDCFFCKTTIVSVEDWEKGANTSTTSSAA
In the case of B2, in the assay with p105 [3], the “interaction with p105 (Co-IP)” value was “an interaction between p105 and the full-length KPC1 protein was observed”. Further, in assay [2], the tumor growth entry was “repressed glioblastoma U87-MG tumor growth”.
